The record followed here is paper PMC5550006.

The target of this experiment is recombinant IPSE/alpha-1 expressed in tobacco plants (N-terminally tagged H6F-IPSE) (Schistosoma mansoni). Kind of experiment: SDS-PAGE under reducing and non-reducing conditions; purified IPSE on a 12% Bis-Tris gel, with and without DTT, Coomassie brilliant blue staining.

Turning to “recombinant IPSE/alpha-1 expressed in tobacco plants (N-terminally tagged H6F-IPSE) (natural protein)”, the stoichiometry N – broadly, the number of molecules, sites or subunits per partner or assembly – is 2.
